Measured values from patent publication US20260092121A1 (TALEM THERAPEUTICS, published 2026).

B1: anti-TrkB chicken-derived clone F1.3 (antibody, V domains shown)
VH: AVTLDESGGGLQTPGGALSLVCKASGFTFSSFPMVWVRQAPGKGLEFVAGIVRTSTPKYGAAVTGRATISRDNGQSTVRLQLNNLRAEDTGTYFCAKSATICGNCPEDIDAWGHGTEVIVSS
VL: QAALTQPASVSANPGETVKITCSGGSSDYGWFQQKSPGSAPVTVIYYSDKRPSDIPSRFSGSTSGSTNTLTITGVQVEDEAVYFCGSGDNSYVGFGAGTTLTVL
notes: chimeric chicken-human mAb
B2: anti-TrkB chicken-derived clone B11 (antibody, V domains shown)
VH: AVTLDESGGGLQTPGGALSLVCKASGFTFSSFNMFWVRQAPGKGLEFVAHIKRNGGETDYGAAVKGRATISRDDGQSTVRLQLNNLRAEDTATYFCAKDAGDNCRWNYCTTNIDAWGHGTEVIVSS
VL: QAALTQPASVSANPGETVKITCSGGGRWYGTYYYGWYQQKSPGSAPVTVIYSNDKRPSDIPSRFSGSASGSTATLTITGVQADDEAVYYCGSWDSTDTTAFGAGTTLTVL
notes: chimeric chicken-human mAb
B3: anti-TrkB chicken-derived clone A12 (antibody, V domains shown)
VH: AVTLDESGGGLQTPGGALSLVCKASGFTFSSFPMVWVRQAPGKGLEFVAGIVRTSTPKYGAAVTGRATISRDNGQSTVRLQLNNLRAEDTGTYFCAKSATICGNCPEDIDAWGHGTEVIVSS
VL: QAALTQPASVSANPGETVKITCSGGSSDYGWFQQKSPGSAPVTVIYYSDKRPSDIPSRFSGSASGSMGALIITGVQAEDEAVYFCGSRDSSNVAIFGAGTTLTVL
notes: chimeric chicken-human mAb
B4: anti-TrkB chicken-derived clone B5 (antibody, V domains shown)
VH: AVTLDESGGGLQTPGGALSLVCKASGFTFSSFPMVWVRQAPGKGLEFVAGIVRTSTPKYGAAVTGRATISRDNGQSTVRLQLNNLRAEDTGTYFCAKSATICGNCPEDIDAWGHGTEVIVSS
VL: QAALTQPASVSANPGETVKITCSGGSSDYGWFQQKSPGSAPVTVIYYSDKRPSDIPSRFSGSTSGSMGALIITGVQAEDEAVYFCGSRDSSNVAIFGAGTTLTVL
notes: chimeric chicken-human mAb
B5: anti-TrkB chicken-derived clone D5 (antibody, V domains shown)
VH: AVTLDESGGGLQTPGGPLSLVCEGSGFTFSSYGMAWVRQAPGKRLEWVASISSTGINAYYGAAVKGRATISRDNGQSTVRLQLNNLRAEDTGIYYCSKCAYSGSCSTSIDAWGHGTEVIVSS
VL: QAALTQPASVSANLGGTVEITCSGGSSGYGYGWYQQKSPGSAPVTVIYNNNNRPSDIPSRFSGSLSDSTHTLTITGVRAEDEAVYFCGAWESSATDIFGAGTTLTVL
notes: chimeric chicken-human mAb
B6: anti-TrkB chicken-derived clone B1.2 (antibody, V domains shown)
VH: AVTLDESGGGLQTPGGGLSLVCKASGFTFSNHQMAWVRQAPGKGLEYVGLINAAGSWTYYGTAVKGRATISRDNGQSTVRLQLNNLRAEDTATYYCAKDVYGYCSTCGATIDTWGHGTEVIVSS
VL: QAALTQPSSVSANPGETVKITCSGPTYDYGWFQQKSPGSAPVTVIYYNDNRPSDIPSRFSGSKSGSTATLTITGVQAEDEAVYYCGTYEDNNGASFGAGTTLTVL
notes: chimeric chicken-human mAb
B7: anti-TrkB chicken-derived clone E2 (antibody, V domains shown)
VH: AVTLDESGGGLQTPGGALSLVCKASGFDFSSNAMGWVRQAPGKGLEFIASITTDGSYTTYGAAVKGRATISRDDGQSTLRLQLNNLRAEDTATYYCAKDSSIHWNGYDIDAWGHGTEVIVSS
VL: QAALTQPSSVSANPGETVKITCSGSINNYGWYQQKSPGSAPVTVIYQNDKRPSDIPSRFSGSKSGSTGTLTITGVQAEDEAVYFCGSEDSRTYLGIFGAGTTLTVL
notes: chimeric chicken-human mAb
B8: anti-TrkB chicken-derived clone B4.2 (antibody, V domains shown)
VH: AVTLDESGGGLQTPGGGLSLVCKASGFTFSSYTMQWVRQAPGKGLEWVAGICNDGTTTNYGSAVKGRATISRDNGQSTLRLQLNNLRAEDTGIYFCTRGVDICWNSGNNIDAWGHGTEVIVSS
VL: QAALTQPASVSANPGETVKITCSGGGSYYGSYYYGWYQQKSPGSAPVTVIYNNDKRPSDIPSRFSGSLSGSTNTLTITGVQVEDESVYFCGSKDSSGAGIYGAGTTLTVL
notes: chimeric chicken-human mAb
B9: KiH.6E08_TrkB × 3G07_CD3 (bispecific antibody)
scFv: QVQLVQSGGGVVQPGRSLRLSCAASGFTFSSYAMHWVRQAPGKGLEWVAVISYDGSNKYYADSVKGRFTISRDNSKNTLYLQMNSLRAEDTAVYYCARAFRRYDAFDIWGQGTLVTVSSSSGGGGSGGGGSGGSALDIQMTQTPLSLSVTLGQPASISCRSSQGLVYSDGNTYLNWFQQRPGQSPRRLIYKVSNRDSGVPDRFSGSGSGTDFTLKISRVEAEDVGVYYCMQGTHWPPAFGQGTKVEIK
VH: QVQLQQSGGGLVQPGGSLRLSCAASGFSFGSSAMSWVRQAPGRGLEWVSGISHSGSTTYYADSVKGRFTISRDNSKNTLYLQMNSLRVEDTAVYYCAKIGAYGYYFHYWGQGTLVTVSS
VL: NFMLTQPHSLSESPGKTVTISCTRSSGSIASKYVQWYQQRPGSAPTTVIYDDKQRPSGVPDRFSGSFDSSSNSASLTISGLKTEDEADYYCQSFDSTNQAVVFGGGTKLTVL
notes: scFv-knob-Fc (IgG1 T366W/S354C) + Fab-hole-Fc (T366S/L368A/Y407V/Y349C); also called 6E08-3G07
B10: KiH.3C12_TrkB × 1A09_CD3 (bispecific antibody)
scFv: QVQLVQSGAEVKKPGESLKISCKGSGYSFTSYWIGWVRQMPGKGLEWMGIIYPGDSDTRYSPSFQGQVTISADKSISTAYLQWSSLKASDTAMYYCTRSSFNDHWGQGTLVTVSSSSGGGGSGGGGSGGSALQPVLTQPPSVSVSPGQTASITCSGDKLGNKFVSWFQQKPGQSPVLVIYQDTKRPSGIPERFSGSNSGSTATLTITGTQAMDDADYYCQAWNTNTALFGGGTKLTVL
VH: EVQLVQSGGGLVKPGGSLRLSCAASGFTFSSYSMNWVRQAPGKGLEWVSSISSSSSYIYYADSVKGRFTISRDNSKNTLYLQMNSLRAEDTAVYYCARVKDYDSSLDYWGQGTLVTVSS
VL: SYELMQPPSVSVSPGQTARITCSGFKLGDKYVSWYQQKPGQSPVLVIYQDSKRPSGIPERFSGSNSGNTATLTISGTQAMDEADYYCQAWDSSTVVFGGGTKLTVL
notes: scFv-knob-Fc (IgG1 T366W/S354C) + Fab-hole-Fc (T366S/L368A/Y407V/Y349C); also called 3C12-1A09; 3C12/1A09
B11: KiH.3C12_TrkB × 8A05_CD3 (bispecific antibody)
scFv: QVQLVQSGAEVKKPGESLKISCKGSGYSFTSYWIGWVRQMPGKGLEWMGIIYPGDSDTRYSPSFQGQVTISADKSISTAYLQWSSLKASDTAMYYCTRSSFNDHWGQGTLVTVSSSSGGGGSGGGGSGGSALQPVLTQPPSVSVSPGQTASITCSGDKLGNKFVSWFQQKPGQSPVLVIYQDTKRPSGIPERFSGSNSGSTATLTITGTQAMDDADYYCQAWNTNTALFGGGTKLTVL
VH: QVQLQQSGGGLVQSGGSLRLSCAASGFSFGSSAMSWVRQAPGRGLEWVSGISHSGSTTYYADSVKGRFTISRDNSKNTLYLQMNSLRVEDTAVYYCAKIGAYGYYFHYWGQGTLVTVSS
VL: NFMLTQPHSVSESPGKTVTISCTRSGGSIASNYVQWYQQRPGSSPTTVIYDDNQRPSGVPDRFSGSIDSSSNSASLTISGLKTEDEADYYCQSSDNINHVIFGGGTKLTVL
notes: scFv-knob-Fc (IgG1 T366W/S354C) + Fab-hole-Fc (T366S/L368A/Y407V/Y349C); also called 3C12-8A05; 3C12/8A05
B12: KiH.3C12_TrkB × 3G07_CD3 (bispecific antibody)
scFv: QVQLVQSGAEVKKPGESLKISCKGSGYSFTSYWIGWVRQMPGKGLEWMGIIYPGDSDTRYSPSFQGQVTISADKSISTAYLQWSSLKASDTAMYYCTRSSFNDHWGQGTLVTVSSSSGGGGSGGGGSGGSALQPVLTQPPSVSVSPGQTASITCSGDKLGNKFVSWFQQKPGQSPVLVIYQDTKRPSGIPERFSGSNSGSTATLTITGTQAMDDADYYCQAWNTNTALFGGGTKLTVL
VH: QVQLQQSGGGLVQPGGSLRLSCAASGFSFGSSAMSWVRQAPGRGLEWVSGISHSGSTTYYADSVKGRFTISRDNSKNTLYLQMNSLRVEDTAVYYCAKIGAYGYYFHYWGQGTLVTVSS
VL: NFMLTQPHSLSESPGKTVTISCTRSSGSIASKYVQWYQQRPGSAPTTVIYDDKQRPSGVPDRFSGSFDSSSNSASLTISGLKTEDEADYYCQSFDSTNQAVVFGGGTKLTVL
notes: scFv-knob-Fc (IgG1 T366W/S354C) + Fab-hole-Fc (T366S/L368A/Y407V/Y349C); also called 3C12-3G07; 3C12/3G07

Key:
[1] = target: TrkB in PathHunter eXpress TrkB Functional Assay cells (modified U2OS); assay: cell-based or functional assay
human TrkB-His [2] = target: T1, human TrkB-His (human, UniProt Q16620 32-430); assay: BLI off-rate, mAb immobilized, 300 nM TrkB-His
T1 construct: in-house fusion of the TrkB ECD with poly-His, HEK293; also called huTrkB-His; hTrkB-His; not shown: poly-His tag

human TrkB-His [3] = target: T1, human TrkB-His; assay: ELISA

Row | Binder | TrkB activation (EC50) [1] [ng/mL] | koff (human TrkB-His [2]) [s⁻¹] | binding result (human TrkB-His [3])
1 | B1 | 380 | 0.0156 | –
2 | B2 | 0.00086 | 0.00434 | –
3 | B3 | 4.5 | 0.00176 | –
4 | B4 | 8.9 | 0.00114 | –
5 | B5 | 180 | 0.000219 | –
6 | B6 | 7.5 | 0.000483 | –
7 | B7 | 170 | 0.000575 | –
8 | B8 | – | 0.00136 | –
9 | B9 | – | – | binds
10 | B10 | – | – | binds
11 | B11 | – | – | binds
12 | B12 | – | – | binds
